# Assay results taken from patent publication US20250277200.
# Assays:
# C5a = test system: T1, C5a
# T1 sequence: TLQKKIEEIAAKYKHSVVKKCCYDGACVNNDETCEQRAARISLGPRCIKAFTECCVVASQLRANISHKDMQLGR
# Sequence of CPN1-HSA (chain): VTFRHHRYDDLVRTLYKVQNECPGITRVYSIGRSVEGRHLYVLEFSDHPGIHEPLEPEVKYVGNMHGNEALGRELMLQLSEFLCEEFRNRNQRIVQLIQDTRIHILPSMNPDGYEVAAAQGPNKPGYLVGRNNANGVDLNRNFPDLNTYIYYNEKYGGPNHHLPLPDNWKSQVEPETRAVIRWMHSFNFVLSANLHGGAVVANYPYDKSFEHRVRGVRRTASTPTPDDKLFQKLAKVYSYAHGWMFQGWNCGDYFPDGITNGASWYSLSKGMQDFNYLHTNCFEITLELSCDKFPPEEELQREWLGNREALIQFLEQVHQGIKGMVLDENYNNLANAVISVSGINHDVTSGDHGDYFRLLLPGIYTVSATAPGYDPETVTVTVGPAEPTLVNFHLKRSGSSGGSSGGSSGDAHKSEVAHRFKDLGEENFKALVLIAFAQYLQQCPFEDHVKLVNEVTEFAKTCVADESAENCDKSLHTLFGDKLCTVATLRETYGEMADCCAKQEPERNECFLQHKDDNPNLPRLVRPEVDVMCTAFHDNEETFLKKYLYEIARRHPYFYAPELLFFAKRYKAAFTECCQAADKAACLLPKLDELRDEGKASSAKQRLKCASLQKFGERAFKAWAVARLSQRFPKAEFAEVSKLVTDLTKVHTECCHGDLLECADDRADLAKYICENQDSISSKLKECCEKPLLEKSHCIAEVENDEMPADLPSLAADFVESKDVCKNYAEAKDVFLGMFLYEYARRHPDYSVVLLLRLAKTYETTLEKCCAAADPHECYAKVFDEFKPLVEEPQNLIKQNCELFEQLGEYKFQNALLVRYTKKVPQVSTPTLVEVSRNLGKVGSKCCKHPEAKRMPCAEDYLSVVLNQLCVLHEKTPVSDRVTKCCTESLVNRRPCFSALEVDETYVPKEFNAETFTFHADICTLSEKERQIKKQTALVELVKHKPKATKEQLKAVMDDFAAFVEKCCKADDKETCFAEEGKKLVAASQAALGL
# Sequence of C3a (chain, as listed by the source): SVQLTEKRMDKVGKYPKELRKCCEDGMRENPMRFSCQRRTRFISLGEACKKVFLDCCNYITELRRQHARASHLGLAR
substance,measurement,setting,value
CPN1-HSA,"% Cleavage (GPCR assay, purified enzyme)",C3a,100%
same,"% Cleavage (GPCR assay, supernatant)",C3a,100%
same,"Kcat/KM (Arg LC-MS/MS, purified enzyme)",C3a,800000 M⁻¹ s⁻¹
same,"% Cleavage (GPCR assay, purified enzyme)",C5a,82%
same,"% Cleavage (GPCR assay, supernatant)",C5a,97%
